Test results: patent US20120172298A1, “GLP-1 AND FGF21 COMBINATIONS FOR TREATMENT OF DIABETES TYPE 2” (Novo Nordisk A/S, priority 2009, published 2012)
Values joined by “and” are separate entries in the source; they are usually repeats but may differ in a detail not shown here. Identical values can stand only once.

Test system: pancreatic islets from diabetic db/db mice
Test: Restoration of glucose stimulated insulin release ex vivo (islet perifusion)
Format: cell-based
Design: AUC for time 35-75 minutes (glucose response), single repetitions / AUC for time 75-140 minutes (forskolin response), single repetitions: unit not given here
Conditions: for insulin release: mean +/- SEM
Method: This ex vivo example investigates the ability of pancreatic islets from diabetic db/db mice to restore, in response to treatment with FGF21 and GLP-1 compounds, the ability to release insulin in response to glucose stimulation.
Islets from 25 db/db mice (Charles River), 15 weeks of age, were isolated according to the following procedure:
Animals were killed by cervical dislocation and fixated with pins on a Styrofoam plate. Pancreata were removed and transferred to a Packard vial containing 5 ml collagenase (Life Science, grade II, cat. no. 100502) 300 units/ml (one pancreas/vial) which was kept on ice until all pancreata were removed. Then the pancreata were shaken in the Grant/Edmund S25 thermoshaker at 200 strokes/min. at 37° C. for 5 min. The tissue was transferred to a fresh vial containing 5 ml 150 units/ml collagenase (supernatant was discarded) and shaken again in the thermoshaker for 5 min. The tissue was further shaken 3-5 min. on the thermoshaker, and thereafter all shaking is done by hand for 5-10 sec. each time. These steps were repeated until all tissue was digested. The process was followed continuously under the stereomicroscope and once digested the tissue was pooled and collected in progressively fewer tubes. All supernatants were washed 3 times in HBSS+0.5% NCS (HBSS (10×) from Gibco, cat. no. 14060, is diluted 10× in H2O before use, Newborn Calf Serum (NCS) from Gibco, cat. no. 26010-066), allowed to sediment for 5 min. between each wash, and left on ice, following which the islets were ready for picking. Islets were purified by transferring a little bit of supernatant to a Petri dish, filling up with HBSS+NCS and subsequently transferring (by mouth pipetting) with a constriction pipette to a new Petri dish. From there the islet were re-picked until pure, and then incubated in RPMI 1640 medium (Gibco, cat no 61870-010)+10% NCS at 37° C.
After incubation, the islets were washed in Krebs Ringer solution (115 mM NaCl, 4.7 mM KCl, 2.6 mM CaCl2, 1.2 mM KH2PO4, 1.2 mM MgSO4, 10 mM HEPES, 0.2% BSA, 2 mM glutamine, 5 mM NaHCO3, pH 7.4) and subsequently used in an islet perifusion experiment (Suprafusion 2500 from Brandel). For each of the three preincubation conditions four perifusion columns each with 60 islets were used. The islets were placed in Bio-gel P2 (Bio-Rad. cat. no. 150-4114) in the columns with a nylon mesh below and above the gel. The islets were initially perifused for 40 minutes with Krebs Ringer solution containing 3 mM glucose to obtain a stable baseline of insulin release. After 40 minutes the buffer was exchanged to 15 mM glucose for 30 minutes (time 40-70 min). Then the buffer was exchanged to 15 mM glucose containing 10 μM forskolin (Tocris 1099, batch 3A/86008) for 40 minutes (time 70-110 min). Finally the buffer was exchanged to low glucose (3 mM) for 30 minutes (time 110-140 min). The buffer was set to flow through the perifusion system at a rate of 0.3 ml/minute. Samples were taken every 5 minutes from time 30 to 140 min. Samples were stored at −20° C. and subsequently analysed for insulin, essentially as described by Poulsen et al. in Journal of Biomolecular Screening 12(X); p. 1-8, 2007 (LOCI (Luminescent Oxygen Channeling Immunoassay) sandwich immunoassay).
The results (ng/ml insulin) are shown in Table 1 below as mean+/−standard error of mean (SEM). The figures for the control and the FGF21 compound are based on three repetitions (due to problems with one of the four columns in these two experiments), while the figures for the GLP-1 compound are based on four repetitions.
The corresponding Area Under the Curve (designated AUC) figures were also calculated, and for the statistics the Student's T-test was used.

[1] = insulin AUC per perifusion column, FGF21 = 50 nM Compound F1, GLP-1 = 100 nM Compound G3

B1: Met-FGF21_human (protein, listed as Homo sapiens)
chain: HPIPDSSPLLQFGGQVRQRYLYTDDAQQTEAHLEIREDGTVGGAADQSPESLLQLKALKPGVIQILGVKTSRFLCQRPDGALYGSLHFDPEACSFRELLLEDGYNVYQSEAHGLPLHLPGNKSPHRDPAPRGPARFLPLPGLPPALPEPPGILAPQPPDVGSSDPLSMVGPSQGRSPSYAS
modifications: N-terminal Met; mat_peptide (1)..(181); DISULFID (75)..(93)
restoration of glucose stimulated insulin release ex vivo (db/db mice pancreatic islets, Table 2 results, F1 50 nM, G3 100 nM): capable of restoring glucose stimulated insulin release | AUC for time 35-75 minutes (glucose response), single repetitions [1]: 521.2 and 514.5 and 359.9 | AUC for time 75-140 minutes (forskolin response), single repetitions [1]: 5402 and 4177 and 5832 | AUC for time 75-140 minutes (forskolin response), mean (insulin AUC, FGF21 = 50 nM Compound F1, GLP-1 = 100 nM Compound G3, * FGF21 vs GLP-1): (mean 5137*) | AUC for time 35-75 minutes (glucose response), mean (insulin AUC, FGF21 = 50 nM Compound F1, GLP-1 = 100 nM Compound G3, ** vs control): (mean 465.2**) | insulin release (time 35 min, 3 mM glucose, islets preincubated 48 h with 50 nM Compound F1 or 100 nM Compound G3): 0.92 ± 0.10 ng/mL | insulin release (time 40 min, 3 mM glucose, preincubation 48 h 50 nM F1 or 100 nM G3): 0.71 ± 0.06 ng/mL | insulin release (time 45 min, 15 mM glucose, preincubation 48 h 50 nM F1 or 100 nM G3): 0.68 ± 0.04 ng/mL | insulin release (time 50 min, 15 mM glucose, preincubation 48 h 50 nM F1 or 100 nM G3): 19.56 ± 6.74 ng/mL | insulin release (time 55 min, 15 mM glucose, preincubation 48 h 50 nM F1 or 100 nM G3): 28.33 ± 2.09 ng/mL | insulin release (time 60 min, 15 mM glucose, preincubation 48 h 50 nM F1 or 100 nM G3): 12.07 ± 0.50 ng/mL | insulin release (time 65 min, 15 mM glucose, preincubation 48 h 50 nM F1 or 100 nM G3): 11.13 ± 0.66 ng/mL | insulin release (time 70 min, 15 mM glucose, preincubation 48 h 50 nM F1 or 100 nM G3): 13.37 ± 0.63 ng/mL | insulin release (time 75 min, 15 mM glucose + 10 μM forskolin, preincubation 48 h 50 nM F1 or 100 nM G3): 13.47 ± 0.78 ng/mL | insulin release (time 80 min, 15 mM glucose + 10 μM forskolin, preincubation 48 h 50 nM F1 or 100 nM G3): 77.17 ± 14.84 ng/mL | insulin release (time 85 min, 15 mM glucose + 10 μM forskolin, preincubation 48 h 50 nM F1 or 100 nM G3): 160.00 ± 16.52 ng/mL | insulin release (time 90 min, 15 mM glucose + 10 μM forskolin, preincubation 48 h 50 nM F1 or 100 nM G3): 154.00 ± 15.00 ng/mL | insulin release (time 95 min, 15 mM glucose + 10 μM forskolin, preincubation 48 h 50 nM F1 or 100 nM G3): 148.33 ± 17.95 ng/mL | insulin release (time 100 min, 15 mM glucose + 10 μM forskolin, preincubation 48 h 50 nM F1 or 100 nM G3): 125.00 ± 17.35 ng/mL | insulin release (time 105 min, 15 mM glucose + 10 μM forskolin, preincubation 48 h 50 nM F1 or 100 nM G3): 99.40 ± 11.84 ng/mL | insulin release (time 110 min, 15 mM glucose + 10 μM forskolin, preincubation 48 h 50 nM F1 or 100 nM G3): 79.97 ± 8.43 ng/mL | insulin release (time 115 min, low glucose (3 mM), preincubation 48 h 50 nM F1 or 100 nM G3): 69.63 ± 9.61 ng/mL | insulin release (time 120 min, low glucose (3 mM), preincubation 48 h 50 nM F1 or 100 nM G3): 56.23 ± 8.37 ng/mL | insulin release (time 125 min, low glucose (3 mM), preincubation 48 h 50 nM F1 or 100 nM G3): 30.03 ± 6.67 ng/mL | insulin release (time 130 min, low glucose (3 mM), preincubation 48 h 50 nM F1 or 100 nM G3): 13.16 ± 3.21 ng/mL | insulin release (time 135 min, low glucose (3 mM), preincubation 48 h 50 nM F1 or 100 nM G3): 5.76 ± 0.70 ng/mL | insulin release (time 140 min, low glucose (3 mM), preincubation 48 h 50 nM F1 or 100 nM G3): 3.92 ± 0.37 ng/mL
